Data from the nanobody polyreactivity screen of Harvey et al. (2022).

Assay: yeast display, Sf9 membrane polyspecificity reagent, FACS + sequencing; frameworks hold sequencing errors
How it was run: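 Polyreactivity labels are assigned by the sorting gate from which each nanobody was recovered. The gates were low and high (top ~1%), set on anti-HA fluorescence for expression and streptavidin fluorescence for reagent binding. Before sorting, galactose-induced (36–48 hours) yeast display cells were stained for 1 hour at 4 °C with 10% biotinylated, detergent-solubilized Sf9 membrane reagent.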

Sequence | polyreactivity (PSR sort gate)
QVQLVESGGGLVQAGGSLRLSCAASGSIFVGNAMGWYRQAPGKERELVAAISSGGSTYYADSVKGRFTISRDNAKNTVYLQMNSLKPEDTAVYYCAAYYVRRYSSRPKDDYWGQGTQVTVSS | low polyreactivity
QVQLVESGGGLVQAGGSLRLSCAASGSIFVGNTMGWYRQAPGKERELVAALTWSGGRTYYADSVKGRFTISRDNEKNTVYLQMHSLKPEDTAVYYCNALANYIRYYYWGQGTQVTVSS | high polyreactivity
QVQLVESGGGLVQAGGSLRLSCAASGSIFVGYAMGWYRQAPGKERELVAAITFRGGSTYYADSVKGRFTISRDNAKNTVYLQMNSLKPEDTAVYYCNRVVRLRRPAQYNYWGQGTQVTVSS | high polyreactivity
QVQLVESGGGLVQAGGSLRLSCAASGSIFVGYAMGWYRQAPGKEREVVAAISSSGTSTYYADSVKGRFTISRDNAKNTVYLQMNSLKPEDTAVYYCNARWYVPAYEFDYWGHGTQVTVSS | low polyreactivity
QVQLVESGGGLVQAGGSLRLSCAASGSIFVGYAMGWYRQAPWKERELVAAISKRGGGTYYADSVKGRFTISRDNAKNTVYLHMNSLKPEDTAVYYCNAVPVHLDVASGYYYWGQGTQVTVSS | high polyreactivity
QVQLVESGGGLVQAGGSLRLSCAASGSIFVHYAMGWYRQAPGKERELVAAISRSGGSTYYADSVKGRFTISRDNAKNTFYLQMNSLKPEDTAVYYCAADSGYLSPYDYWGHGTQVTVSS | low polyreactivity
QVQLVESGGGLVQAGGSLRLSCAASGSIFVINAMGWYRQAPGKERELVAAISYSGTGTYYADSVKGRFTISRDNAKNTVYLQMNSLKPEDTAVYYCAADYYYRYRIYDYWGQGTQVTVSS | low polyreactivity
QVQLVESGGGLVQAGGSLRLSCAASGSIFVKNAMGWYRQAPGKERELVARITYSGGSTYYADSVKGRFTISRDNAKNTVYLQMNSLKPEDTADYYCDTDGNLRTAGYAYDHYYWGQGTQVTVSS | high polyreactivity
QVQLVESGGGLVQAGGSLRLSCAASGSIFVKNAMGWYRQAPGKERELVAVITIRTATTYYADSVKGRFTISRDNAKNTVYLQMNSLKPEDTAVYYCAAAKRQRGYLQREGNYWGQGTQVTVSS | low polyreactivity
QVQLVESGGGLVQAGGSLRLSCAASGSIFVKYAMGWYRQAPGTERELVAAISGSGGSTYYADSVKGRFTISRDNAKNTVYLQMNSLKPEDTAVYYCAADDYFYSGRYGFEYWGQGTQVTVSS | low polyreactivity
QVQLVESGGGLVQAGGSLRLSCAASGSIFVLNAMGWYRQAPGKERELVAAISSADSTTYADSVKGRFTISRDNAKNSVYLQMNSLKPEDTAVYYCAADWWYVLIFDYWGQGTQVTVSS | low polyreactivity
QVQLVESGGGLVQAGGSLRLSCAASGSIFVLNAMGWYRQAPGKERELVATITWRGGSTYYADSVKGRFTISRDNAKNTVYLQMNSLKPEDTAVYYCAKVDIRHHRFYYWGHGTQVTVSS | low polyreactivity
QVQLVESGGGLVQAGGSLRLSCAASGSIFVLYAMGWYRQAPGKERELVAAINYDGASTYYADSVKGRFTISRDNAKNTVYLQMNSLKPEDTAVYYCAARWQFNIDVQLYLFEYWGQGTEVTVSS | low polyreactivity
QVQLVESGGGLVQAGGSLRLSCAASGSIFVLYAMGWYRQAPGKERELVAAITASGGSTHYADSVKGRFTISRDNAKNTVYLQMNSLKPEDTAVYYCNADVYTEYDYWGQGTQVTVSS | low polyreactivity
QVQLVESGGGLVQAGGSLRLSCAASGSIFVLYAMGWYRQAPGKERELVATITWSGDSTYYADSVKGRFTISRDNAKNTVYLQMNSLKPEDTAVYYCNKRIWDQYDWGQGTQVTVSS | low polyreactivity
QVQLVESGGGLVQAGGSLRLSCAASGSIFVLYTIGWYRQAPGKERELVGAISYSGGSTNYADSVKGRFTISRDNAKNTVYLQMNSLKPEDTSVYYCADRASKGHKYWGQGTQVTVSS | high polyreactivity

Sequence | polyreactivity (PSR sort gate)
QVQLVESGGGLVQAGGSLRLSCAASGSIFVLYTMGWYRQAPGKERELVAAISYSGGSTNYADSVKGRFTISRDNAKNTVYLQMNSLKPEDTAVYYCAARASKGHKYWGQGTQVTVSS | high polyreactivity
QVQLVESGGGLVQAGGSLRLSCAASGSIFVNYAMGWYSQAPGTERELVAAISWRGGITYGVSVKGRFTISRDNAKNTVYLQMNSLKPEDTADYYSNTDGDDFFHVIYDYWAQGTQVTVSS | low polyreactivity
QVQLVESGGGLVQAGGSLRLSCAASGSIFVPYAMGWYRQAPGKERELVAAISSGGSTNYADSVKGRFTISRDNAKNTVYLQMNSLKPEDTAVYYCNADYSVYIIADEYDYWGQGTQVTVSS | low polyreactivity
QVQLVESGGGLVQAGGSLRLSCAASGSIFVPYAMGWYRQAPGKERELVASINWNGSSTYADSVKGRFTISRDNAKNSVYLQMNSLKPEDTAVYYCNADYNRNSVQFSLYDYWGQGTQVTVST | low polyreactivity
QVQLVESGGGLVQAGGSLRLSCAASGSIFVPYAMGWYRQAPGKERELVAVITSGGSTYYADSVKGRFTISRDNAKNTVFLQMNSLKPEDTAVYYCAVDGGEFSSYGYWGQGTQVTVSS | low polyreactivity
QVQLVESGGGLVQAGGSLRLSCAASGSIFVPYTMGWYRQAPGKERELVASISYSGGTTYYADSVKGRFTISRDNAKNTVYLQMNSLKPEDTAVYYCAAQTLDGYDYWGQGTQVTVSS | low polyreactivity
QVQLVESGGGLVQAGGSLRLSCAASGSIFVQYAMGWYRQAPGKERELVATISSSGGSTYYADSVKGRFTISRDNAKNTVYLQMNSLKPEDTAVYYCAADWTLDPSYGYYADDYWGQGTQVTVST | low polyreactivity
QVQLVESGGGLVQAGGSLRLSCAASGSIFVRNAMGWYRQAPGKEREFVATITSSGGTTYYADSVKGRFTISRDNAKNTVYLQMNSLKPDDTAVYYCNADAGWYDWVYYVGRDYWGQGTQVTVSS | low polyreactivity
QVQLVESGGGLVQAGGSLRLSCAASGSIFVRNAMGWYRQAPGKERELVAAITARGGSTYYADSVKGRFTISRDNAKNTVYLLMHSLKPEDTAVYYCARSYYYRGWAQWRYDYWGQGTQVTVSS | high polyreactivity
QVQLVESGGGLVQAGGSLRLSCAASGSIFVRNGMGWYRQAPGKERELVASITSGTITYYADSVKGRFTISRDNAKNTVYLQMNSLKPEDTAVYYCNAGWRSSRMEYWGQGTQVTVSS | high polyreactivity
QVQLVESGGGLVQAGGSLRLSCAASGSIFVRNVMGWYRQAPGKERELVAGISWNGGSTFNADSVKGRFTISRDNAKNTVYLQMNSLKQEDTAVYYCAARGRHSGYYSFPYYYWGQGTQVTVSS | low polyreactivity
QVQLVESGGGLVQAGGSLRLSCAASGSIFVRNVMGWYRQPPGKERELVATIRYRGGSTYYADSVKGRFTISRDYAKNTVYLQMNSLKPEDTAVYYCNARYLWADEYYYWGQGTQVTVSS | low polyreactivity
QVQLVESGGGLVQAGGSLRLSCAASGSIFVRYAMGWYRQAPGKERELVAAISSGGRTYYADSVKGRFTISRDNAKYTVYLQMNSLKPEDTAVYYCNAVKRVPSLGPYDYWGQGTQVTVSS | high polyreactivity
QVQLVESGGGLVQAGGSLRLSCAASGSIFVRYAMGWYRQAPGKERELVASIRSRGDSTYYADSVKGRFTISRDNAKNTVYLQMNSLKPEDTAVYYCAARRYPPRMDYWGQGTQVTVSS | high polyreactivity
QVQLVESGGGLVQAGGSLRLSCAASGSIFVRYAMGWYRQAPGKERELVAVISSDGRTYYADSVKGRFTISRDNAKNTVYLQMNSLKPEDTAVYYCAKRAWGFGGYDYWGQGTQVTVSS | low polyreactivity
QVQLVESGGGLVQAGGSLRLSCAASGSIFVRYTMGWYRQAPGKETELVAAISWGGGSTYYADSVKGRFTISRDNAKNSVYLQMNSLKPEDTAVYYCNKRYIQLYDYWGQGTKVTVSS | low polyreactivity
